Reference: patent US20160068605A1 (Janssen / Centocor, published 2016)
Numbering of substitutions follows the chain as printed. “And” between values parts separate entries of the source, which are not always exact repeats. Equal entries are not always repeated. One block for each binder: values may come before it.

Legend:
[1] = molecular target: T1, Recombinant human CD123 SP1 ECD-His tag protein (human, UniProt P26951 20-305); test: SPR ProteOn, captured mAb
T1 construct: bought from R&D Systems (#301-R3/CF); biotinylated for some assays; also called rhCD123 SP1; huCD123 ECD SP1
T1 sequence: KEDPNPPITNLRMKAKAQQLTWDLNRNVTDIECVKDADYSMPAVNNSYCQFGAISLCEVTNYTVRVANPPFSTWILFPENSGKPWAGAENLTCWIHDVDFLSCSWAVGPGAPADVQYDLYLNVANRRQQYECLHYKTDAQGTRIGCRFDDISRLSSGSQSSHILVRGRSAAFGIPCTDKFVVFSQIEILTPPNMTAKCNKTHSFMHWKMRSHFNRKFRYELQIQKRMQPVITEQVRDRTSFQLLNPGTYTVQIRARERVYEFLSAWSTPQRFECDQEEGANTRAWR
Protocol: (§1) The biosensor surface was prepared by covalently coupling Goat anti-Human IgG (Fc) to the surface of a GLC chip (BioRad) using the manufacturer instructions for amine-coupling chemistry. […] The RU immobilized also included a goat anti-mouse Fc antibody that was added to capture other antibodies not included in the ones reported here. Since the mixture was 1:1 about 50% of these RU immobilized are expected to be goat anti-human Fc. The kinetic experiments were performed at 25° C. in running buffer (PBS pH 7.4, 0.005% P20, 3 mM EDTA). […] The reference spots (Goat anti-Human IgG (Fc)-modified surface) containing no candidate captured were used as a reference surface. Capture of mAb was followed by 3 min injection (association phase) of antigen at 40 μL/min, followed by 10 min of buffer flow (dissociation phase). […] Data was processed on the instrument software. Double reference subtraction of the data was performed by subtracting the curves generated by buffer injection from the reference-subtracted curves for analyte injections. Kinetic analysis of the data was performed using 1:1 Langmuir binding model with group fit. The result for each mAb was reported in the format of Kₐ (kon or on-rate), Kd (koff or off-rate), KD (Equilibrium dissociation constant) (Table 5).

[2] = molecular target: T2, Recombinant human CD123 SP2 ECD protein (human, UniProt P26951 101-303); test: SPR ProteOn, captured mAb
T2 construct: also called rhCD123 SP2; CD123 ECD SP2
T2 sequence: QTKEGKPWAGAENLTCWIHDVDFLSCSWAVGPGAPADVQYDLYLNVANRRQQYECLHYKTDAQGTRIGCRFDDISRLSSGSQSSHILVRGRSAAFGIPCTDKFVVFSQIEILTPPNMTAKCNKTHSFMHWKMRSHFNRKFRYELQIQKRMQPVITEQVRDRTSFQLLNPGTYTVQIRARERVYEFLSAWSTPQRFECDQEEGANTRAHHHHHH
Protocol: as §1

[3] = molecular target: T3, human CD123 SP2 ECD displayed on pDisplay-transfected cells (human, UniProt P26951 101-305); test: MSD cell binding on 293F pDisplay cells; fold change over background; parental 293F cells as control
T3 construct: ECD anchored on the surface of stably transfected HEK293 cells; also called hCD123 SP2 cells; pDisplay CD123SP2
T3 sequence: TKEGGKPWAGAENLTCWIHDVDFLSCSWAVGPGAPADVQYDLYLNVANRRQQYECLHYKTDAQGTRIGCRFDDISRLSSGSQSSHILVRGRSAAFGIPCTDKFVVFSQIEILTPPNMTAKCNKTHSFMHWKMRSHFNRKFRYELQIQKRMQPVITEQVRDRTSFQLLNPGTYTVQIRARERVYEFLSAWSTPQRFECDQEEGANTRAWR
Protocol: (§2) The object of the screening assay was to identify antibodies that bound to cells expressing hCD123 SP1 and SP2 as well as cross reactivity with cells expressing cynoCD123 SP1.
(§3) Cells were immobilized and phages were assayed in triplicate. […] 5000 cells per well were plated into a 384 well plate (MA6000, cat. L21XB, MSD) and allowed to adhere for 2 hr. Cells were then blocked with 20% FBS in PBS (Gibco) for 15 mins. Antibody supernatants were then added and left at RT for 1 hr. Cells were washed 3 times with PBS and a ruthenium labeled secondary antibody (Jackson Immuno Research) was then added at 1 μg/mL and incubated for 1 hr at room temperature. A further washing step was then applied and 35 μL per well of MSD Read buffer T (surfactant free) was then added and incubated for 30 min for detection. Plates were then read using Sector Imager 2400 (MSD). Data was normalized to controls and graphed using GraphPad Prism Version 5. A positive binder was determined to be a hit with a signal 3× greater than background (FIGS. 2A, B and C).

[4] = molecular target: T4, cyno CD123 ECD displayed on pDisplay-transfected cells (cynomolgus monkey); test: as above
T4 construct: ECD anchored on the surface of stably transfected HEK293 cells; also called cynoCD123 SP1 cells; cynoCD123 cells
T4 chain: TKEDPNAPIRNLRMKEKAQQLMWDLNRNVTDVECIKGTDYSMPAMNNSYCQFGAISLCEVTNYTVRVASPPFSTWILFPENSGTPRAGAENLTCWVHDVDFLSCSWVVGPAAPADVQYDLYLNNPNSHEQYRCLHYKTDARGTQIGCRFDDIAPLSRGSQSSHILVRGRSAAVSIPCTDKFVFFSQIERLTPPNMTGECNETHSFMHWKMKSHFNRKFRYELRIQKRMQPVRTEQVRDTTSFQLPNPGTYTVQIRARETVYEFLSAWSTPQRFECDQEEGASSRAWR
Protocol: as §2, §3

[5] = molecular target: T1, Recombinant human CD123 SP1 ECD-His tag …; test: SPR Biacore 3000, captured Fab
Protocol: (§4) Kinetic studies were performed at 25° C. using a Biacore 3000 (BIAcore, Inc., now part of GE Healthcare). […] Sheep anti-Human Fd specific antibody (The binding site Prod # PC075) was covalently attached to two flow cells (normally 3 and 4) of the carboxymethyl dextran coated gold surfaces (CM-5 Chip, Biacore). The carboxymethyl groups of dextran were activated with N-Ethyl-N′-(3-Dimethylaminopropyl)carbodiimide (EDC) and N-hydroxysuccinimide (NHS). The antibodies were coupled at pH 4.5 in 10 mM sodium acetate. Any remaining reactive sites on the surface were blocked by reaction with ethanolamine. […] Association data was collected for 2 min followed by 10 min of dissociation. The surface was regenerated with 30 μL of 100 mM H3PO4 100 μL/min. All samples were prepared in D-PBS containing 3 mM EDTA and 0.005% surfactant P20. Data reported is the difference in SPR signal between the flow cell containing the captured antibody or Fab and a reference cell without captured antibody or Fab. Additional instrumental contributions to the signal were removed by subtraction of the data from the blank injection from the reference-subtracted signal. Data were performed in triplicate and analyzed by fitting association and dissociation phases at all concentrations (global fit) with a 1:1 binding model using the BIAevaluation software (BIAcore, Inc.). […] Data presented is an average.

[6] = molecular target: T1, Recombinant human CD123 SP1 ECD-His tag …; test: SPR Biacore 3000, captured mAb
Protocol: as §4

Kd [1]: 201 nM
koff [1]: 0.226 s⁻¹
kon [1]: 1.13e+06 M⁻¹ s⁻¹
binding result [2]: no binding (tested: 400 nM)
binding result [3]: no binding (tested: 10 µg/mL)
binding result [4]: no binding (tested: 10 µg/mL)
B1: I3RB24 (antibody, IgG1, V domains shown)
VH: QVQLVQSGAEVKKPGSSVKVSCKASGGTFSSYAISWVRQAPGQGLEWMGGIIPIFGTANYAQKFQGRVTITADESTSTAYMELSSLRSEDTAVYYCARHTDAWGYRLDYWGQGTLVTVSS
VL: not shown
notes: IgG1

Kd [1]: 9.61 nM
koff [1]: 0.0078 s⁻¹
kon [1]: 812000 M⁻¹ s⁻¹
binding result [2]: no binding (tested: 400 nM)
binding result [3]: no binding (tested: 10 µg/mL)
binding result [4]: no binding (tested: 10 µg/mL)
B2: I3RB12 (antibody, IgG1, V domains shown)
VH: B1 VH with H99A, T100D, D101R, A102V, G104D, R106Y
VL: not shown
notes: IgG1

Kd [5]: 11.5 nM
koff [5]: 0.0045 s⁻¹
kon [5]: 393000 M⁻¹ s⁻¹
B3: I3RB122 (Fab, V domains shown)
VH: B1 VH with H99D, T100K, D101T, A102D, W103F, G104P, Y105S
VL: DIQMTQSPSSLSASVGDRVTITCRASQSIATWLNWYQQKPGKAPKLLIYAASSLQSGVPSRFSGSGSGTDFTLTISSLQPEDFATYYCQQYITFPLTFGQGTKVEIK
notes: also called Fab of I3RB37

Kd [1]: 6.27 nM and 5.15 nM
koff [1]: 0.00669 s⁻¹ and 0.00621 s⁻¹
kon [1]: 1.07e+06 M⁻¹ s⁻¹ and 1.21e+06 M⁻¹ s⁻¹
Kd [6]: 9.7 nM
koff [6]: 0.0053 s⁻¹
kon [6]: 545000 M⁻¹ s⁻¹
binding result [3]: no binding (tested: 10 µg/mL)
binding result [4]: binds
B4: I3RB37 (antibody, IgG1, V domains shown)
VH: B1 VH with H99D, T100K, D101T, A102D, W103F, G104P, Y105S
VL: B3 VL
notes: IgG1

Kd [1]: 2.83 nM
koff [1]: 0.00293 s⁻¹
kon [1]: 1.04e+06 M⁻¹ s⁻¹
Kd [6]: 4.8 nM
koff [6]: 0.00258 s⁻¹
kon [6]: 540000 M⁻¹ s⁻¹
binding result [4]: binds
B5: I3RB35 (antibody, IgG1, V domains shown)
VH: B1 VH with T100L, D101F, A102W, W103D, G104A, Y105G, R106P
VL: B3 VL with A30S, T31S, W32Y, I92F, T93S, F94P, L96Y
notes: IgG1

Kd [1]: 2.89 nM
koff [1]: 0.00253 s⁻¹
kon [1]: 874000 M⁻¹ s⁻¹
binding result [2]: no binding (tested: 400 nM)
binding result [3]: no binding (tested: 10 µg/mL)
binding result [4]: no binding (tested: 10 µg/mL)
B6: I3RB11 (antibody, IgG1, V domains shown)
VH: QVQLVQSGAEVKKPGSSVKVSCKASGGTFSSYGISWVRQAPGQGLEWMGGIIPIFGTANYAQKFQGRVTITADESTSTAYMELSSLRSEDTAVYYCARDLFSWRYSNFDYWGQGTLVTVSS
VL: not shown
notes: IgG1

Kd [1]: 11.5 nM
koff [1]: 0.00593 s⁻¹
kon [1]: 514000 M⁻¹ s⁻¹
binding result [2]: no binding (tested: 400 nM)
binding result [3]: no binding (tested: 10 µg/mL)
binding result [4]: no binding (tested: 10 µg/mL)
B7: I3RB6 (antibody, IgG1, V domains shown)
VH: B6 VH with G33A, D99G, S102N, R104S, Y105N, S106V, N107A, F108L
VL: not shown
notes: IgG1; also called I3RB06

Kd [1]: 4.12 nM
koff [1]: 0.00106 s⁻¹
kon [1]: 257000 M⁻¹ s⁻¹
binding result [2]: no binding (tested: 400 nM)
binding result [3]: no binding (tested: 10 µg/mL)
binding result [4]: no binding (tested: 10 µg/mL)
B8: I3RB22 (antibody, IgG1, V domains shown)
VH: QVQLVQSGAEVKKPGSSVKVSCKASGGTFSSYAISWVRQAPGQGLEWMGGIIPIFGTANYAQKFQGRVTITADESTSTAYMELSSLRSEDTAVYYCARNLFYWADSVYLDYWGQGTLVTVSS
VL: EIVLTQSPATLSLSPGERATLSCRASQSVNKWLAWYQQKPGQAPRLLIYYASNRATGIPARFSGSGSGTDFTLTISSLEPEDFAVYYCQQGIDWPRTFGQGTKVEIK
notes: IgG1

Kd [1]: 12.4 nM
koff [1]: 0.00843 s⁻¹
kon [1]: 680000 M⁻¹ s⁻¹
binding result [2]: no binding (tested: 400 nM)
binding result [3]: no binding (tested: 10 µg/mL)
binding result [4]: no binding (tested: 10 µg/mL)
B9: I3RB9 (antibody, IgG1, V domains shown)
VH: B8 VH with N99G, L100A, F101R, Y102W, W103F, A104N, D105P, S106P, V107E, Y108N
VL: not shown
notes: IgG1; also called I3RB09
